The assay deals with T1, VEGF (UniProt P15692-4 27-191).
T1 construct: Bought reagent; also called vascular endothelial growth factor
The experiment in a line: SPR (Biacore), DVD-Ig captured, VEGF in solution.

Here are results for ten molecules from patent US20100260668A1 (published 2010).

T1 sequence (P15692 other isoform, or with tags, fused parts or gaps limits assumed): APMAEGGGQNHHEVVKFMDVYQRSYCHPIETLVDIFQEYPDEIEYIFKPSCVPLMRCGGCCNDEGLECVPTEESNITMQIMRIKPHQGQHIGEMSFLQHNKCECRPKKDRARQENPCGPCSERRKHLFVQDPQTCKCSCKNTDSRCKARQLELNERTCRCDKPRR

B1: DVD495 (bispecific antibody, human IgG1, kappa)
heavy: not shown
light: DIQMTQSSSYLSVSLGGRVTITCKASDHINNWLAWYQQKPGNAPRLLISGATSLETGVPSRFSGSGSGKDYTLSITSLQTEDVATYYCQQYWSIPLTFGAGTKLELKRTVAAPSVFIFPPDIQMTQSPSSLSASVGDRVTITCRASQDVSTAVAWYQQKPGKAPKLLIYSASFLYSGVPSRFSGSGSGTDFTLTISSLQPEDFATYYCQQSYTTPPTFGQGTKVEIKRTVAAPSVFIFPPSDEQLKSGTASVVCLLNNFYPREAKVQWKVDNALQSGNSQESVTEQDSKDSTYSLSSTLTLSKADYEKHKVYACEVTHQGLSSPVTKSFNRGEC
notes: DVD-Ig; N-term; VD AB072 (DLL4), C-term; VD AB070 (VEGF); HC linker long, LC linker long; also called DVD495H; DVD495L
With B1, the affinity, expressed as Kd, was 0.645 nM; the koff turned out to be 0.000204 s⁻¹; the kon was found to be 316000 M⁻¹ s⁻¹.

B2: DVD449 (bispecific antibody, human IgG1, kappa)
heavy: not shown
light: DIVMTQSPDSLAVSLGERATISCRASESVDNYGISFMKWFQQKPGQPPKLLIYAASNQGSGVPDRFSGSGSGTDFTLTISSLQAEDVAVYYCQQSKEVPWTFGGGTKVEIKRTVAAPSVFIFPPDIQMTQSPSSLSASVGDRVTITCRASQDVSTAVAWYQQKPGKAPKLLIYSASFLYSGVPSRFSGSGSGTDFTLTISSLQPEDFATYYCQQSYTTPPTFGQGTKVEIKRTVAAPSVFIFPPSDEQLKSGTASVVCLLNNFYPREAKVQWKVDNALQSGNSQESVTEQDSKDSTYSLSSTLTLSKADYEKHKVYACEVTHQGLSSPVTKSFNRGEC
notes: DVD-Ig; N-term; VD AB069 (DLL4), C-term; VD AB070 (VEGF); HC linker long, LC linker long; also called DVD449H; DVD449L
The molecule B2 displayed a Kd of 0.903 nM, a dissociation rate constant (koff) of 0.000208 s⁻¹ and a kon of 230000 M⁻¹ s⁻¹.

B3: DVD461 (bispecific antibody, human IgG1, kappa)
heavy: not shown
light: B2 light
notes: DVD-Ig; N-term; VD AB069 (DLL4), C-term; VD AB070 (VEGF); HC linker short, LC linker long; also called DVD461H; DVD461L
B3 yielded a Kd of 0.75 nM, a koff of 0.000202 s⁻¹ and a kon of 269000 M⁻¹ s⁻¹.

B4: DVD489 (bispecific antibody, human IgG1, kappa, L234A L235A)
heavy: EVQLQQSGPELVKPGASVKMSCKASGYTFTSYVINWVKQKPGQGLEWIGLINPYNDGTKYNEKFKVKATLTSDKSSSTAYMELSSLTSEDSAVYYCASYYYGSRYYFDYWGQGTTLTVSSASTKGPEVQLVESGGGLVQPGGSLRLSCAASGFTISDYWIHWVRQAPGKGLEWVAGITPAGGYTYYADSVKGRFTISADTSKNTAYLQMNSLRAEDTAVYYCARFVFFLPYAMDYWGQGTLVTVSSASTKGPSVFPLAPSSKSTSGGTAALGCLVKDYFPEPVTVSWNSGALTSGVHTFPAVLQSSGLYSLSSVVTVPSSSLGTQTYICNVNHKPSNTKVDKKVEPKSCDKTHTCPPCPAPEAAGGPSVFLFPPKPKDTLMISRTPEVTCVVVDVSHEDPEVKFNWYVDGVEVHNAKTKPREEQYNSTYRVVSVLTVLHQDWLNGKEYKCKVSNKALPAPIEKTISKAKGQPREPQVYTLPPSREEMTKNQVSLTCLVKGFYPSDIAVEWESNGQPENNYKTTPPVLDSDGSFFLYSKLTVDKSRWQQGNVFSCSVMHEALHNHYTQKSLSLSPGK
light: DIQMTQSSSYLSVSLGGRVTITCKASDHINNWLAWYQQKPGNAPRLLISGATSLETGVPSRFSGSGSGKDYTLSITSLQTEDVATYYCQQYWSIPLTFGAGTKLELKRTVAAPDIQMTQSPSSLSASVGDRVTITCRASQDVSTAVAWYQQKPGKAPKLLIYSASFLYSGVPSRFSGSGSGTDFTLTISSLQPEDFATYYCQQSYTTPPTFGQGTKVEIKRTVAAPSVFIFPPSDEQLKSGTASVVCLLNNFYPREAKVQWKVDNALQSGNSQESVTEQDSKDSTYSLSSTLTLSKADYEKHKVYACEVTHQGLSSPVTKSFNRGEC
notes: DVD-Ig; N-term; VD AB072 (DLL4), C-term; VD AB070 (VEGF); HC linker short, LC linker short; also called DVD489H; DVD489L
Molecule B4 registered a Kd of 1.76 nM, a koff of 0.000365 s⁻¹ and a kon of 207000 M⁻¹ s⁻¹.

B5: DVD443 (bispecific antibody, human IgG1, kappa)
heavy: not shown
light: DIVMTQSPDSLAVSLGERATISCRASESVDNYGISFMKWFQQKPGQPPKLLIYAASNQGSGVPDRFSGSGSGTDFTLTISSLQAEDVAVYYCQQSKEVPWTFGGGTKVEIKRTVAAPDIQMTQSPSSLSASVGDRVTITCRASQDVSTAVAWYQQKPGKAPKLLIYSASFLYSGVPSRFSGSGSGTDFTLTISSLQPEDFATYYCQQSYTTPPTFGQGTKVEIKRTVAAPSVFIFPPSDEQLKSGTASVVCLLNNFYPREAKVQWKVDNALQSGNSQESVTEQDSKDSTYSLSSTLTLSKADYEKHKVYACEVTHQGLSSPVTKSFNRGEC
notes: DVD-Ig; N-term; VD AB069 (DLL4), C-term; VD AB070 (VEGF); HC linker short, LC linker short; also called DVD443H; DVD443L
Take B5: binding was characterised by a dissociation constant (Kd) of 1.71 nM, the koff amounted to 0.000267 s⁻¹ and the on-rate (kon) came to 157000 M⁻¹ s⁻¹.

B6: DVD455 (bispecific antibody, human IgG1, kappa)
heavy: not shown
light: B5 light
notes: DVD-Ig; N-term; VD AB069 (DLL4), C-term; VD AB070 (VEGF); HC linker long, LC linker short; also called DVD455H; DVD455L
B6 returned an equilibrium dissociation constant (Kd) of 0.46 nM, a koff of 8.15e-05 s⁻¹ and a kon of 177000 M⁻¹ s⁻¹.

B7: DVD513 (bispecific antibody, human IgG1, kappa)
heavy: not shown
light: QAVVTQESALTTSPGETVTLTCRSSTGAVTTSNYANWVQEKPDHLFTGLIGGTNNRAPGVPARFSGSLIGDKAALTITGAQTEDEAIYFCALWYSNHWVFGGGTKLTVLGQPKAAPDIQMTQSPSSLSASVGDRVTITCRASQDVSTAVAWYQQKPGKAPKLLIYSASFLYSGVPSRFSGSGSGTDFTLTISSLQPEDFATYYCQQSYTTPPTFGQGTKVEIKRTVAAPSVFIFPPSDEQLKSGTASVVCLLNNFYPREAKVQWKVDNALQSGNSQESVTEQDSKDSTYSLSSTLTLSKADYEKHKVYACEVTHQGLSSPVTKSFNRGEC
notes: DVD-Ig; N-term; VD AB073 (DLL4), C-term; VD AB070 (VEGF); HC linker short, LC linker short; also called DVD513H; DVD513L
B7 registered a Kd of 1.24 nM, a koff of 0.000497 s⁻¹ and a kon of 400000 M⁻¹ s⁻¹.

B8: DVD525 (bispecific antibody, human IgG1, kappa)
heavy: not shown
light: B7 light
notes: DVD-Ig; N-term; VD AB073 (DLL4), C-term; VD AB070 (VEGF); HC linker long, LC linker short; also called DVD525H; DVD525L
B8 came in with a Kd of 0.447 nM, a koff of 0.000483 s⁻¹ and a kon of 1.08e+06 M⁻¹ s⁻¹.

B9: DVD519 (bispecific antibody, human IgG1, kappa, lambda)
heavy: not shown
light: QAVVTQESALTTSPGETVTLTCRSSTGAVTTSNYANWVQEKPDHLFTGLIGGTNNRAPGVPARFSGSLIGDKAALTITGAQTEDEAIYFCALWYSNHWVFGGGTKLTVLGQPKAAPSVTLFPPDIQMTQSPSSLSASVGDRVTITCRASQDVSTAVAWYQQKPGKAPKLLIYSASFLYSGVPSRFSGSGSGTDFTLTISSLQPEDFATYYCQQSYTTPPTFGQGTKVEIKRTVAAPSVFIFPPSDEQLKSGTASVVCLLNNFYPREAKVQWKVDNALQSGNSQESVTEQDSKDSTYSLSSTLTLSKADYEKHKVYACEVTHQGLSSPVTKSFNRGEC
notes: DVD-Ig; N-term; VD AB073 (DLL4), C-term; VD AB070 (VEGF); HC linker long, LC linker long; also called DVD519H; DVD519L
On to B9, for which binding was put at a Kd of 0.223 nM, the koff is 0.00522 s⁻¹ and the kon amounted to 2.35e+07 M⁻¹ s⁻¹.

B10: DVD531 (bispecific antibody, human IgG1, kappa, lambda)
heavy: not shown
light: B9 light
notes: DVD-Ig; N-term; VD AB073 (DLL4), C-term; VD AB070 (VEGF); HC linker short, LC linker long; also called DVD531H; DVD531L
For B10, the Kd turned out to be 0.584 nM, the koff is 0.000442 s⁻¹ and the kon was 756000 M⁻¹ s⁻¹.
